Here are results for 14 molecules from patent US20130058955A1 (Genentech, published 2013).

Changes are numbered by the printed parent chain. Names may count otherwise. “And” between values parts separate entries of the source, which are not always exact repeats. Equal entries are not always repeated. Where two headings read alike, the source gives them in different places.

The target of assay [1] is T1, linear diubiquitin (Boston Biochem) (human, UniProt P0CG48 1-152).
T1 construct: Bought product
As to the kind of experiment: phage IC50 competition ELISA: soluble linear diUb against plate-coated linear diUb for the 1D8.3C2 Fab-phage.

Assay [2] deals with T1, linear diubiquitin (Boston Biochem). The assay is described as follows: phage IC50 competition ELISA: Fab-phage with titrated soluble linear diubiquitin, unbound phage caught on coated linear diubiquitin; clone 1D8. The method, then:
(§1) An initial titer ELISA was done to determine the amount of phage at which a signal of OD₄₅₀=0.5 would be achieved. […] The coated plates were blocked with 200 μL/well of 2.5% milk in PBST for one hour at 25° C. with shaking. Twelve two-fold serial dilutions of the phage were made in 2.5% milk in PBST from OD₂₆₈=4.0 to OD₂₆₈=0.002. After one hour, the blocking buffer was dumped off of the plate and 100 μL/well of each phage dilution was added and incubated at 25° C. for 15 minutes with shaking. The plate was then washed six times with PBST using a plate washer. A 1:5000 dilution of an anti-M13 phage-HRP-conjugated secondary antibody (GE Healthcare) in PBST was used for detection of phage binding. 100 μL/well of the secondary dilution was added and the plate was incubated at 25° C. for 30 minutes with shaking. The plate was then washed 12 times with PBST using a plate washer and twice with PBS manually. Bound secondary antibody was detected using a TMB substrate (KPL) followed by quenching with an equal volume of 1 M phosphoric acid.

The target of assay [3] is T2, monoubiquitin (Boston Biochem) (human, UniProt P0CG48 1-76).
T2 construct: Bought product
The assay is described as follows: phage spot ELISA, 2 ug/mL coated antigen, anti-M13-HRP. The method, then: (§2) Ninety-six individual clones from the second round of sorting of the VH library, 192 clones from the third round of sorting of the VH library, 96 clones from the fourth round of sorting of the VH library, and 192 clones from the fourth round of sorting of the common light chain library were screened. […] Individual clones were grown up in a 96-well format in 1 mL of 2YT broth containing 50 μg/mL carbenicillin and 1×10¹⁰ phage/mL M13K07 helper phage at 37° C. overnight with shaking. Cells were pelleted by spinning at 3000 rpm for ten minutes. […] All of the Fab libraries contain a carboxy-terminal gD tag on the light chain which allows for assessment of display level by anti-gD antibody binding. The panel of ubiquitin proteins was immobilized on 384-well Maxisorb immunoplates (NUNC). Plates were coated at 4° C. overnight with 2 μg/mL of each protein in 50 mM sodium carbonate buffer, pH 9.6. The coated plates were blocked with 60 μL/well of 2.5% milk in PBST for one hour at 25° C. with shaking. After one hour, the blocking buffer was dumped off of the plate and 20 μL/well of PBST and 10 μL/well of phage supernatant were added. Plates were incubated at 25° C. for one hour with shaking. The plate was then washed six times with PBST by manually filling the wells and dumping off the wash buffer. A 1:5,000 dilution of an anti-M13 horseradish peroxidase (HRP)-conjugated secondary antibody (GE Healthcare) in PBST was used for detection of phage binding. 30 μL/well of the secondary dilution was added and the plate was incubated at 25° C. for 30 minutes with shaking. The plate was then washed six times with PBST and twice with PBS, both manually. Bound secondary antibody was detected using a TMB substrate (KPL) followed by quenching with an equal volume of 1 M phosphoric acid. The absorbance was read at 450 nm.

Assay [4] concerns the target T3, K11-linked diubiquitin (Genentech) (human, UniProt P0CG48 1-76, isopeptide bond between the C-terminus of one ubiquitin and Lys11 of the other).
T3 construct: also called K11 diUb
The assay is described as above. The method, then:
as §2

Assay [5] addresses T4, K63-linked polyubiquitin 2-7 (Boston Biochem) (human, UniProt P0CG48 1-76, isopeptide bonds between the C-terminus of one ubiquitin and Lys63 of the next).
T4 construct: also called K63-linked chains
Described as above. On the procedure:
as §2

Assay [6] has as its target T5, K48-linked polyubiquitin 2-7 (Boston Biochem) (human, UniProt P0CG48 1-76, isopeptide bonds between the C-terminus of one ubiquitin and Lys48 of the next).
T5 construct: also called K48-linked chains
The assay is described as above. On the procedure:
as §2

The target of assay [7] is T1, linear diubiquitin (Boston Biochem). The assay is described as follows: phage IC50 competition ELISA with soluble linear diubiquitin. The method, then: as §1
Assay [8] has the same target. As to the kind of experiment: phage IC50 competition ELISA: Fab-phage with titrated soluble linear diubiquitin, unbound phage caught on coated linear diubiquitin; clone 1E3. On the procedure:
as §1

The target is the same in assay [9]. The assay is described as follows: phage IC50 competition ELISA with soluble linear diubiquitin. The source holds these as a separate data set.
For assay [10] the target is unchanged. As to the kind of experiment: western blot, 1 ug/mL IgG, LI-COR Odyssey quantification; Ub2 bands seen at 111 (faint), 333 and 1000 ng.
Assay [11] has the same target. As to the kind of experiment: western blot, 1 ug/mL IgG, LI-COR Odyssey quantification; Ub2 bands seen at 37 (faint), 111, 333 and 1000 ng.
For assay [12], the target named is T2, monoubiquitin (Boston Biochem). The assay is described as follows: phage specificity ELISA, 1 ug/mL coated antigen, anti-M13-HRP.
Assay [13] addresses T3, K11-linked diubiquitin (Genentech). The assay is described as above.
Assay [14] addresses T6, K48-linked diubiquitin (Boston Biochem) (human, UniProt P0CG48 1-76, isopeptide bond between the C-terminus of one ubiquitin and Lys48 of the other).
T6 construct: Bought product; also called K48 diUb
Described as above.

The target of assay [15] is T2, monoubiquitin (Boston Biochem). Described as above. This is another data set of the same source.
Assay [16] deals with T3, K11-linked diubiquitin (Genentech). The assay is described as above. The source holds these as a separate data set.
In assay [17] the target is T6, K48-linked diubiquitin (Boston Biochem). Described as above. This is another data set of the same source.

B1: 1D8.3C2, Fab displayed on phage (Fab, V domains shown)
VH: EVQLVESGGGLVQPGGSLRLSCAASGFTFTDYDIHWVRQAPGKGLEWVAWISPYSGYTDYADSVKGRFTISADTSKNTAYLQMNSLRAEDTAVYYCAREAGSRLLSVMDYWGQGTLVTVSS
VL: DIQMTQSPSSLSASVGDRVTITCRASQGVDNSVAWYQQKPGKAPKLLIYSASFLYSGVPSRFSGSGSGTDFTLTISSLQPEDFATYYCQQSYTTPPTFGQGTKVEIK
notes: Fab on M13 phage
For the molecule B1, the binding result in assay [1] was “binds”.

B2: 1D8, Fab displayed on phage (Fab, V domains shown)
VH: B1 VH with W50G, S55G
VL: B1 VL with G28D, D30S, N31T, S32A
notes: Fab on M13 phage (heavy chain fused to gpIII, gD tag on light chain); Fab-zip (bivalent) in the first spot ELISA, monovalent afterwards; also called parental wild-type 1D8
The molecule B2 yielded a concentration for half-maximal inhibition (IC50) in assay [2] of roughly 5 µM.

B3: 1A10, Fab displayed on phage (Fab, V domains shown)
VH: EVQLVESGGGLVQPGGSLRLSCAASGFNIYYSSIHWVRQAPGKGLEWVASIYPYYGYTSYADSVKGRFTISADTSKNTAYLQMNSLRAEDTAVYYCARGYSWYYGSPAFDYWGQGTLVTVSS
VL: B1 VL with G28S, D30S, N31S, S32A, F53S, G66R, S91H
notes: Fab on M13 phage
As for B3, the binding result in [3], in assay [4], in assay [5] and in [6] was “no binding” throughout.

B4: 1E3, Fab displayed on phage (Fab, V domains shown)
VH: EVQLVESGGGLVQPGGSLRLSCAASGFTFSNTYISWVRQAPGKGLEWVASITPSSGSTDYADSVKGRFTISADTSKNTAYLQMNSLRAEDTAVYYCARTWLLRWVMDYWGQGTLVTVSS
VL: B1 VL with G28D, D30S, N31T, S32A
notes: Fab on M13 phage (heavy chain fused to gpIII, gD tag on light chain); Fab-zip (bivalent) in the first spot ELISA, monovalent afterwards; also called WT; parental 1E3
Regarding B4, the concentration for half-maximal inhibition (IC50) in assay [7] was 29 nM and 24 nM and 25 nM; in assay [8], 80 nM.

B5: 1D8.4F5, Fab displayed on phage (Fab, V domains shown)
VH: B1 VH with Y32D, W50E, S55G
VL: B1 VL with G28D, D30S, N31T, S32A, Y92F
notes: Fab on M13 phage
In assay [9], B5 returned an IC50 of roughly 2000 nM.

B6: 1F11/Y102L IgG (antibody, V domains shown)
VH: B4 VH with Y108L
VL: B1 VL with G28D, D30S, N31T, S32A, S52K
notes: human kappa IgG1
With B6, in assay [10], the “signal of the Ub2 band at 1000 ng linear diUb (number under the arrow)” value (from here on “signal of the Ub2 band”) is 5.3.

B7: 3F5/Y102L IgG (antibody, V domains shown)
VH: B4 VH with S57Q, Y108L
VL: B1 VL with G28D, D30S, N31T, S32A
notes: Human kappa IgG1
B7: in assay [11], the “signal of the Ub2 band” value amounted to 18.

B8: 2H5/3F5 double mutant, Fab displayed on phage (Fab, name in Kabat numbering, V domains shown)
VH: B4 VH with S57Q
VL: B1 VL with G28D, D30S, N31T, S32A, T94N
B8 came in with a half-maximal inhibitory concentration (IC50) in assay [7] of 8 nM. Moreover, the binding result in assay [12], in [13] and in [14] was “no binding (tested: phage OD268 1)” in each case.

B9: 1F11/3F5 double mutant, Fab displayed on phage (Fab, V domains shown)
VH: B4 VH with S57Q
VL: B1 VL with G28D, D30S, N31T, S32A, S52K
notes: S52K (L2) and S56Q (H2)
In the case of B9, the half-maximal inhibitory concentration (IC50) in assay [7] came out at 5 nM. Further, the binding result in assay [15], in assay [16] and in [17] was “no binding (tested: phage OD268 1)” in each case.

B10: 1F11/Y102L T110A (antibody, V domains shown)
VH: B4 VH with Y108L, T116A
VL: B1 VL with G28D, D30S, N31T, S32A, S52K
notes: also called 1F11/Y102L T110A IgG
With B10, the “signal of the Ub2 band” value in assay [10] was 8.4.

B11: 1F11/3F5/Y102L T110A (antibody, V domains shown)
VH: B4 VH with S57Q, Y108L, T116A
VL: B1 VL with G28D, D30S, N31T, S32A, S52K
notes: also called 1F11/3F5/Y102L T110A IgG
On to B11, for which the “signal of the Ub2 band” value in assay [11] is 5.5.

B12: 2C11/3F5 double mutant, Fab displayed on phage (Fab, name in Kabat numbering, V domains shown)
VH: B4 VH with S57Q
VL: B1 VL with G28D, D30S, N31T, S32A, T94Q
Molecule B12 had an IC50 in [7] of 10 nM. Further, the binding result in assay [12], in assay [13] and in [14] was “no binding (tested: phage OD268 1)” each time.

B13: 1F11/3F5/Y102L IgG (antibody, V domains shown)
VH: B4 VH with S57Q, Y108L
VL: B1 VL with G28D, D30S, N31T, S32A, S52K
notes: also called triple mutant; hybrid anti-linear polyubiquitin antibody
As to B13, the “signal of the Ub2 band” value in assay [11] amounted to 15.5.

B14: Y102L IgG (antibody, V domains shown)
VH: B4 VH with Y108L
VL: B1 VL with G28D, D30S, N31T, S32A
notes: human kappa IgG1; also called Y012L
Take B14: in assay [10], the “signal of the Ub2 band” value was 5.4.
